Data as given in IntAct's records for PubMed 31515488.

B1: Cyclin-dependent kinase 4 inhibitor C (Homo sapiens), P42773 (parent)
chain: MAEPWGNELASAAARGDLEQLTSLLQNNVNVNAQNGFGRTALQVMKLGNPEIARRLLLRGANPDLKDRTGFAVIHDAARAGFLDTLQTLLEFQADVNIEDNEGNLPLHLAAKEGHLRVVEFLVKHTASNVGHRNHKGDTACDLARLYGRNEVVSLMQANGAGGATNLQ
B2: Phospholipase A and acyltransferase 4 (Homo sapiens), Q9UL19 (parent)
chain: MASPHQEPKPGDLIEIFRLGYEHWALYIGDGYVIHLAPPSEYPGAGSSSVFSVLSNSAEVKRERLEDVVGGCCYRVNNSLDHEYQPRPVEVIISSAKEMVGQKMKYSIVSRNCEHFVTQLRYGKSRCKQVEKAKVEVGVATALGILVVAGCSFAIRRYQKKATA
B3: Myosin light polypeptide 6 (Homo sapiens), P60660 (parent)
chain: MCDFTEDQTAEFKEAFQLFDRTGDGKILYSQCGDVMRALGQNPTNAEVLKVLGNPKSDEMNVKVLDFEHFLPMLQTVAKNKDQGTYEDYVEGLRVFDKEGNGTVMGAEIRHVLVTLGEKMTEEEVEMLVAGHEDSNGCINYEAFVRHILSG
B4: Keratin-associated protein 5-9 (Homo sapiens), P26371 (parent)
chain: MGCCGCSGGCGSSCGGCDSSCGSCGSGCRGCGPSCCAPVYCCKPVCCCVPACSCSSCGKRGCGSCGGSKGGCGSCGCSQCSCCKPCCCSSGCGSSCCQCSCCKPYCSQCSCCKPCCSSSGRGSSCCQSSCCKPCCSSSGCGSSCCQSSCCKPCCSQSRCCVPVCYQCKI
partner: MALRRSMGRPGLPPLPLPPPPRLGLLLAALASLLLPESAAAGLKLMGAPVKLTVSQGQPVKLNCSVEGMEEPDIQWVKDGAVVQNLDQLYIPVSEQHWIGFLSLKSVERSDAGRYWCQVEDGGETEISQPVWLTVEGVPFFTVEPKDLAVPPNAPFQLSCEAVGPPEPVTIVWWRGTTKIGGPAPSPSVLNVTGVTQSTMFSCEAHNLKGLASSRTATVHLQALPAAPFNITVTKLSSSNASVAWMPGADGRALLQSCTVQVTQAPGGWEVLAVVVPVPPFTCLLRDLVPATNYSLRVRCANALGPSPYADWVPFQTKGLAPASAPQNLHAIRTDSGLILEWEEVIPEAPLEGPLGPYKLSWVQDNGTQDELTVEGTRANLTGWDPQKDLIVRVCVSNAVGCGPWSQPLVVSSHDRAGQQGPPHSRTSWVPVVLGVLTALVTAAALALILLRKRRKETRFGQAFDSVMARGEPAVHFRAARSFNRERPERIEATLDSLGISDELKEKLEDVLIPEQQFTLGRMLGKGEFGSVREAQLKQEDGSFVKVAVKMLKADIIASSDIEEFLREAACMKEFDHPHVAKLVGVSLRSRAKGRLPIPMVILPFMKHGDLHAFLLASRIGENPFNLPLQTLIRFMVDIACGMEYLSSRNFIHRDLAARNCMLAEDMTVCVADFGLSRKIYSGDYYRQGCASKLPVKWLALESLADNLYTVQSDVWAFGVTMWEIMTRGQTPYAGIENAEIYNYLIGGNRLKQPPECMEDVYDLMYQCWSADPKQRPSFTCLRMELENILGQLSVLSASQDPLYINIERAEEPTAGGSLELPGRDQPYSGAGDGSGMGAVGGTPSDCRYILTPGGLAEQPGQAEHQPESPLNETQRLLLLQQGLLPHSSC
B5: Ras association domain-containing protein 7 (Homo sapiens), Q02833 (parent)
chain: MLLGLAAMELKVWVDGIQRVVCGVSEQTTCQEVVIALAQAIGQTGRFVLVQRLREKERQLLPQECPVGAQATCGQFASDVQFVLRRTGPSLAGRPSSDSCPPPERCLIRASLPVKPRAALGCEPRKTLTPEPAPSLSRPGPAAPVTPTPGCCTDLRGLELRVQRNAEELGHEAFWEQELRREQAREREGQARLQALSAATAEHAARLQALDAQARALEAELQLAAEAPGPPSPMASATERLHQDLAVQERQSAEVQGSLALVSRALEAAERALQAQAQELEELNRELRQCNLQQFIQQTGAALPPPPRPDRGPPGTQGPLPPAREESLLGAPSESHAGAQPRPRGGPHDAELLEVAAAPAPEWCPLAAQPQAL
B6: Nucleoplasmin-3 (Homo sapiens), O75607 (parent)
chain: MAAGTAAALAFLSQESRTRAGGVGGLRVPAPVTMDSFFFGCELSGHTRSFTFKVEEEDDAEHVLALTMLCLTEGAKDECNVVEVVARNHDHQEIAVPVANLKLSCQPMLSLDDFQLQPPVTFRLKSGSGPVRITGRHQIVTMSNDVSEEESEEEEEDSDEEEVELCPILPAKKQGGRP
partner: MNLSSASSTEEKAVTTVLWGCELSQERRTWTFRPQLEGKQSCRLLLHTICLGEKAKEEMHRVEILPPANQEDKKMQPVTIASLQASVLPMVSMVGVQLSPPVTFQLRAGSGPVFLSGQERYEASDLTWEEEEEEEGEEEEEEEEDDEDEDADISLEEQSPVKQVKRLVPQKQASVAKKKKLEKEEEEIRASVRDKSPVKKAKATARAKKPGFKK
B7: Keratin-associated protein 3-2 (Homo sapiens), Q9BYR7 (parent)
chain: MDCCASRSCSVPTGPATTICSSDKSCRCGVCLPSTCPHTVWLLEPICCDNCPPPCHIPQPCVPTCFLLNSCQPTPGLETLNLTTFTQPCCEPCLPRGC
partner: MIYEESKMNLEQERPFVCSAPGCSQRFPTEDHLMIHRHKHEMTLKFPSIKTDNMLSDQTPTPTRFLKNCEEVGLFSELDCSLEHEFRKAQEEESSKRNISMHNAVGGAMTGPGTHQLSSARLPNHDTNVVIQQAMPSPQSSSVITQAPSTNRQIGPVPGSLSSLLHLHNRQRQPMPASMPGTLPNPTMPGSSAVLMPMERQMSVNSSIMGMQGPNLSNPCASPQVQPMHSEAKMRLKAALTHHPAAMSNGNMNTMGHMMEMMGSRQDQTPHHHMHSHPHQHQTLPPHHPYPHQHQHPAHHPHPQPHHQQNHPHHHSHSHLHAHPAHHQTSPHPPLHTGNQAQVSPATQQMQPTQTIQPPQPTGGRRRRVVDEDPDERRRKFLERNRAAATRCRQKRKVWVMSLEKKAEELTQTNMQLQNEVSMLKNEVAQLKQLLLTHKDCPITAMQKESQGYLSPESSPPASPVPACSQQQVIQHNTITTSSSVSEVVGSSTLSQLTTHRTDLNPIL
B8: Actin nucleation-promoting factor WAS (Homo sapiens), P42768 (parent)
chain: MSGGPMGGRPGGRGAPAVQQNIPSTLLQDHENQRLFEMLGRKCLTLATAVVQLYLALPPGAEHWTKEHCGAVCFVKDNPQKSYFIRLYGLQAGRLLWEQELYSQLVYSTPTPFFHTFAGDDCQAGLNFADEDEAQAFRALVQEKIQKRNQRQSGDRRQLPPPPTPANEERRGGLPPLPLHPGGDQGGPPVGPLSLGLATVDIQNPDITSSRYRGLPAPGPSPADKKRSGKKKISKADIGAPSGFKHVSHVGWDPQNGFDVNNLDPDLRSLFSRAGISEAQLTDAETSKLIYDFIEDQGGLEAVRQEMRRQEPLPPPPPPSRGGNQLPRPPIVGGNKGRSGPLPPVPLGIAPPPPTPRGPPPPGRGGPPPPPPPATGRSGPLPPPPPGAGGPPMPPPPPPPPPPPSSGNGPAPPPLPPALVPAGGLAPGGGRGALLDQIRQGIQLNKTPGAPESSALQPPPQSSEGLVGALMHVMQKRSRAIHSSDEGEDQAGDEDEDDEWDD
B9: Keratin-associated protein 5-9 (Homo sapiens), P26371 (parent)
chain: B4 chain
B10: Protein transport protein (Homo sapiens), Q15437 (parent)
chain: MATYLEFIQQNEERDGVRFSWNVWPSSRLEATRMVVPLACLLTPLKERPDLPPVQYEPVLCSRPTCKAVLNPLCQVDYRAKLWACNFCFQRNQFPPAYGGISEVNQPAELMPQFSTIEYVIQRGAQSPLIFLYVVDTCLEEDDLQALKESLQMSLSLLPPDALVGLITFGRMVQVHELSCEGISKSYVFRGTKDLTAKQIQDMLGLTKPAMPMQQARPAQPQEHPFASSRFLQPVHKIDMNLTDLLGELQRDPWPVTQGKRPLRSTGVALSIAVGLLEGTFPNTGARIMLFTGGPPTQGPGMVVGDELKIPIRSWHDIEKDNARFMKKATKHYEMLANRTAANGHCIDIYACALDQTGLLEMKCCANLTGGYMVMGDSFNTSLFKQTFQRIFTKDFNGDFRMAFGATLDVKTSRELKIAGAIGPCVSLNVKGPCVSENELGVGGTSQWKICGLDPTSTLGIYFEVVNQHNTPIPQGGRGAIQFVTHYQHSSTQRRIRVTTIARNWADVQSQLRHIEAAFDQEAAAVLMARLGVFRAESEEGPDVLRWLDRQLIRLCQKFGQYNKEDPTSFRLSDSFSLYPQFMFHLRRSPFLQVFNNSPDESSYYRHHFARQDLTQSLIMIQPILYSYSFHGPPEPVLLDSSSILADRILLMDTFFQIVIYLGETIAQWRKAGYQDMPEYENFKHLLQAPLDDAQEILQARFPMPRYINTEHGGSQARFLLSKVNPSQTHNNLYAWGQETGAPILTDDVSLQVFMDHLKKLAVSSAC
partner: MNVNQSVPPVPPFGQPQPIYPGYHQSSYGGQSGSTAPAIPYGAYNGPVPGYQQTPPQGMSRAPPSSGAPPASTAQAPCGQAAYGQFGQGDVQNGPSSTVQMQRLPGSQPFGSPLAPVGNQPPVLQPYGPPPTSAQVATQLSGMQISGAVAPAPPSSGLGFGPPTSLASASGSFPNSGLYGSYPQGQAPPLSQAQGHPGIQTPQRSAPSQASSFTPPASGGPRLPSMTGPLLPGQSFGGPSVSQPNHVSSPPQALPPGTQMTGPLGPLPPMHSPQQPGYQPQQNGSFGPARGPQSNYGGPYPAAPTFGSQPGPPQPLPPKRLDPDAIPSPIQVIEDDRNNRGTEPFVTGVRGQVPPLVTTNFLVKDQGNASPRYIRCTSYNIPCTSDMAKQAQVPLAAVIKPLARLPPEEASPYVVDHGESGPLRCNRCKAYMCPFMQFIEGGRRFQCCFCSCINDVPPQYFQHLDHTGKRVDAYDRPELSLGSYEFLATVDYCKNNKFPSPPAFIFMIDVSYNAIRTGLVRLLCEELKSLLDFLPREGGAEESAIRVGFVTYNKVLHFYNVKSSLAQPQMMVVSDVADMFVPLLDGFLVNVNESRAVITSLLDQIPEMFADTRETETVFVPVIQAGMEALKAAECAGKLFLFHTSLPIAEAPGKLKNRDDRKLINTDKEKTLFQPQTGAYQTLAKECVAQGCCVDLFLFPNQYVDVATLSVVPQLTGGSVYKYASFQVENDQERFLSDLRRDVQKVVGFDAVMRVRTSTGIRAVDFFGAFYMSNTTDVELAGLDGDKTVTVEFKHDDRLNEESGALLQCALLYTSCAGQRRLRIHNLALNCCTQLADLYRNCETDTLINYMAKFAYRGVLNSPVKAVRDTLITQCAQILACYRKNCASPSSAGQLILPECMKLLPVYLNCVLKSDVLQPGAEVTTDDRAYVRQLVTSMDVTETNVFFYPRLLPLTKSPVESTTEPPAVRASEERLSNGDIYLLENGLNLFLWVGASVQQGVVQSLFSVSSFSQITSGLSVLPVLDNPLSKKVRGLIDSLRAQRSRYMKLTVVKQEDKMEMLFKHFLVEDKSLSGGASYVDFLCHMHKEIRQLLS

Variants of: B1
Settings: with cdk6_human CDK6, Q00534
cdk6_human CDK6, Q00534, sequence (Q00534 whole entry): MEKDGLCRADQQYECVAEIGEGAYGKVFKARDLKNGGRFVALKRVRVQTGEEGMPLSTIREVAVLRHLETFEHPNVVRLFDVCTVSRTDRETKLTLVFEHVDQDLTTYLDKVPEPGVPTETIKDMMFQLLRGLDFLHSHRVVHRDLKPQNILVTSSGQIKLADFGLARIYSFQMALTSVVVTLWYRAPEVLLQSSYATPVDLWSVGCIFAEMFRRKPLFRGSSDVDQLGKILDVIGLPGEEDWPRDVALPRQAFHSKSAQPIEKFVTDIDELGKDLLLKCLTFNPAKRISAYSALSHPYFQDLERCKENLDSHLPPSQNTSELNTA

Question: Which “effect of a mutation on the interaction” value does the source give for R117Q here?
Answer: with no effect

Question: T69A was tested. Which “effect of a mutation on the interaction” value did it give?
Answer: with no effect

Question: With V31L as the variant, how does the “effect of a mutation on the interaction” value read?
Answer: with no effect

Question: Which “effect of a mutation on the interaction” value does the source give for R133Q here?
Answer: with no effect

Variants of: B1
Settings: with cdk4_human CDK4, P11802

Question: With T69A as the variant, how does the “effect of a mutation on the interaction” value read?
Answer: with no effect

Question: Which “effect of a mutation on the interaction” value does the source give for V31L here?
Answer: with no effect

Variants of: B1
Settings: with itf2_human TCF4, P15884
itf2_human TCF4, P15884, sequence (P15884 whole entry): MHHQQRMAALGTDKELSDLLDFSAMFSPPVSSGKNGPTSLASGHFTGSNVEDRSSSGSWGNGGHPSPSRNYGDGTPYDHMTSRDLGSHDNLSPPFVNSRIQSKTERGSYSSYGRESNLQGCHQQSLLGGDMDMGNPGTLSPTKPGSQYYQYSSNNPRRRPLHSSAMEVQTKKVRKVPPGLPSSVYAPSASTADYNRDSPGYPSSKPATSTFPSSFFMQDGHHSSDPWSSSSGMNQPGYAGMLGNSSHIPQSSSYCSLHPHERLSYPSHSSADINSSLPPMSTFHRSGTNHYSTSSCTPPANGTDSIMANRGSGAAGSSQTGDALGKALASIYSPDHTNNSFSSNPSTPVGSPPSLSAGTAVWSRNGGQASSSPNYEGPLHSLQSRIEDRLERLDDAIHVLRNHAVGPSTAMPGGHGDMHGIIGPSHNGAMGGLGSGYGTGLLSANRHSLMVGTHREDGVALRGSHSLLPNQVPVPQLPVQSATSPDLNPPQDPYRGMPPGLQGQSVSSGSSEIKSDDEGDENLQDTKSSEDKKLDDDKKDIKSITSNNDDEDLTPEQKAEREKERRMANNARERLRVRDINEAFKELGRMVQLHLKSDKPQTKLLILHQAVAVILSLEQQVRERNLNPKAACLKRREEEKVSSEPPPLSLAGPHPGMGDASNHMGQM

Question: T69A was tested. Which “effect of a mutation on the interaction” value did it give?
Answer: with no effect

Question: V31L was tested. Which “effect of a mutation on the interaction” value did it give?
Answer: disrupting interaction strength

Variants of: B1
Settings: with htf4_human TCF12, Q99081
htf4_human TCF12, Q99081, sequence (Q99081 whole entry): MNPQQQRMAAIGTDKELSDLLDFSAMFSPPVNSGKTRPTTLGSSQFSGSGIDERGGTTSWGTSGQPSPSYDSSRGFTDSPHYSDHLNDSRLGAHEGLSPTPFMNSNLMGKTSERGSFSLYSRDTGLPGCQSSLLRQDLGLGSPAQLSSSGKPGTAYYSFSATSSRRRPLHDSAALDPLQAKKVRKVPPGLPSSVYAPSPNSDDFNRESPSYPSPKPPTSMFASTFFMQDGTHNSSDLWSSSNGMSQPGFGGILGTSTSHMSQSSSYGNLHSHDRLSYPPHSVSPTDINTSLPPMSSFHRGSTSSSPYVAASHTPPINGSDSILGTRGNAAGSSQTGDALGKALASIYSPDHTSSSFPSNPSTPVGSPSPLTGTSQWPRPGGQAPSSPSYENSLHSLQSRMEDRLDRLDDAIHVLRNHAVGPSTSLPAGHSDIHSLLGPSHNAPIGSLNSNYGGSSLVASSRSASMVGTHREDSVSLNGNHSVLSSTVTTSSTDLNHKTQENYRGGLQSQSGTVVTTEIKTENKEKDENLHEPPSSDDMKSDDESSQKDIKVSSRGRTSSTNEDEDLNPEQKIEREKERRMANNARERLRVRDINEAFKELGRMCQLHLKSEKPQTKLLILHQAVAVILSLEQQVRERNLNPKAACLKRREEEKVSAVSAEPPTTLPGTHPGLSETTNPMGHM

Question: How did the “effect of a mutation on the interaction” value turn out when V31L was run?
Answer: disrupting interaction strength

Variants of: B1
Settings: with nagk_human NAGK

Question: For V31L, which “effect of a mutation on the interaction” value is on record?
Answer: disrupting interaction strength

Variants of: B1
Settings: with sahh2_human AHCYL1, O43865
sahh2_human AHCYL1, O43865, sequence (O43865 whole entry): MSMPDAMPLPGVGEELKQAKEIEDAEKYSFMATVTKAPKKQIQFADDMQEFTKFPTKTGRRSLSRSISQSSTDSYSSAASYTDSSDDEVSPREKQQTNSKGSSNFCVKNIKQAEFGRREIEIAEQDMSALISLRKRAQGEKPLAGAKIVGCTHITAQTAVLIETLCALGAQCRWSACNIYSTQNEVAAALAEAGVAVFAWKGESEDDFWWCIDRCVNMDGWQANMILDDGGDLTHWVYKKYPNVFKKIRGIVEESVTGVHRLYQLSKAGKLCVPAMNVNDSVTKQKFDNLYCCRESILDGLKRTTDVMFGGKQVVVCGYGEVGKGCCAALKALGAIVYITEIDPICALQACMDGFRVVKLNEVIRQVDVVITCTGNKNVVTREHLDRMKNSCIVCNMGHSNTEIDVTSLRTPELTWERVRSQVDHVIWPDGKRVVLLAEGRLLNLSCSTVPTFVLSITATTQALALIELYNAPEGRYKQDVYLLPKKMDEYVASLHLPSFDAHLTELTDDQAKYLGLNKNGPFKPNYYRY

Question: How did the “effect of a mutation on the interaction” value turn out when V31L was run?
Answer: disrupting interaction strength

Variants of: B2
Settings: with sgta_human SGTA

Question: With T141M as the variant, how does the “effect of a mutation on the interaction” value read?
Answer: disrupting interaction strength

Variants of: B3
Settings: with ats12_human ADAMTS12, P58397
ats12_human ADAMTS12, P58397, sequence (P58397 whole entry): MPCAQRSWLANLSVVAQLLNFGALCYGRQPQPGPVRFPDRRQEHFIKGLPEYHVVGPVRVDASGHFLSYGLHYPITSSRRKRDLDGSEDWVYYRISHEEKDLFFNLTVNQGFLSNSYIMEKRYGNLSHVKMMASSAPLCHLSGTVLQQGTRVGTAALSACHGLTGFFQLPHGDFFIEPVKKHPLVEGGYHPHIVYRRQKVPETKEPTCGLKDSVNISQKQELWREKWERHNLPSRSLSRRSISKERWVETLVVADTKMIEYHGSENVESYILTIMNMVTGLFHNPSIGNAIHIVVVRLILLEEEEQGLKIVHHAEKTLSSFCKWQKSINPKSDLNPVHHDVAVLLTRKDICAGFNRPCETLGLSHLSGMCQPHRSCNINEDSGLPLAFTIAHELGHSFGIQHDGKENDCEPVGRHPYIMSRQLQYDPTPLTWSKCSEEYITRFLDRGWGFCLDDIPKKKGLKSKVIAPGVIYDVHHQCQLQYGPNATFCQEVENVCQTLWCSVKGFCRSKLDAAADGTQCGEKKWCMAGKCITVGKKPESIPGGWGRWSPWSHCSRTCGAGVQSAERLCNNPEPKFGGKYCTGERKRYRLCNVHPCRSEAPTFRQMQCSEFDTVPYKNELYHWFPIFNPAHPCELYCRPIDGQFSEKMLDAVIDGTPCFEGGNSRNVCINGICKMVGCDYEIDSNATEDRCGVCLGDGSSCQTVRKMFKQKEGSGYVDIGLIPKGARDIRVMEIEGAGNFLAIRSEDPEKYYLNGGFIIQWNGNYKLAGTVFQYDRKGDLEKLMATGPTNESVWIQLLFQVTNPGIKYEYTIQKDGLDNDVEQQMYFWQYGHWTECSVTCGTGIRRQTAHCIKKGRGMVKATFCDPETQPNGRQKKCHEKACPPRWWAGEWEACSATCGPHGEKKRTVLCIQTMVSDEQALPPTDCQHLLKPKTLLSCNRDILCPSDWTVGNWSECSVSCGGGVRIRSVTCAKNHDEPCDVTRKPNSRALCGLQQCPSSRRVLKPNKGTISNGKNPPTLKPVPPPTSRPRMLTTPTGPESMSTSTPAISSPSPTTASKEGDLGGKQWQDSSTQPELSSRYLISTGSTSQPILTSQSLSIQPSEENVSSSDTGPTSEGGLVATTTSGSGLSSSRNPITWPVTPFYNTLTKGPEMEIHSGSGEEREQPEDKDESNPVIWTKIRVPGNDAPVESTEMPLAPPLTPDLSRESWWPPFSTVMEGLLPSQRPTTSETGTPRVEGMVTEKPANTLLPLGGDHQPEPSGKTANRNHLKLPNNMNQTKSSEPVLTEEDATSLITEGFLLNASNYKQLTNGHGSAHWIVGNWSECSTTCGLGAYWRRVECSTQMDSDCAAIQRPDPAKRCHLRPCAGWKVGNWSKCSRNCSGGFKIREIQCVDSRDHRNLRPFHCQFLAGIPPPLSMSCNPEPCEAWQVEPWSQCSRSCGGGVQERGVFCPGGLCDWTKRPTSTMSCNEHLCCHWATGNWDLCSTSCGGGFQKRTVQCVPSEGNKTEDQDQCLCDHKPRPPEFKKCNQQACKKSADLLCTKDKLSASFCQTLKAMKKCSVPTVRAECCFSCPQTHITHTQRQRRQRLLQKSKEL

Question: C138S was tested. Which “effect of a mutation on the interaction” value did it give?
Answer: disrupting interaction strength

Variants of: B3
Settings: with cpsf5_human NUDT21, O43809

Question: C138S was tested. Which “effect of a mutation on the interaction” value did it give?
Answer: disrupting interaction strength

Variants of: B4
Settings: with tyro3_human TYRO3, Q06418

Question: How did the “effect of a mutation on the interaction” value turn out when Y40C was run?
Answer: disrupting interaction strength

Variants of: B5
Settings: with nck2_human NCK2, O43639
nck2_human NCK2, O43639, sequence (O43639 whole entry): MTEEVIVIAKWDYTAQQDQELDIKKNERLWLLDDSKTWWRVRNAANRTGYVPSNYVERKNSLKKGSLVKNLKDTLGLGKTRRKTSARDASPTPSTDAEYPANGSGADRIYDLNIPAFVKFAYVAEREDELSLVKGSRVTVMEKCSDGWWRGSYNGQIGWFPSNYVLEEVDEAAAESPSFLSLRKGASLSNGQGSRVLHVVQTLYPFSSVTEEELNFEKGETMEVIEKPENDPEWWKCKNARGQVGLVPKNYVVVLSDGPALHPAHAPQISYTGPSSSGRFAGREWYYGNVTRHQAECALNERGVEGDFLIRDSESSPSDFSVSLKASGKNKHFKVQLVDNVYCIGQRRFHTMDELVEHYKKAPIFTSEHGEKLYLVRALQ

Question: Which “effect of a mutation on the interaction” value does the source give for R156Q here?
Answer: with no effect

Variants of: B6
Settings: with npm2_human NPM2, Q86SE8

Question: For E149K, which “effect of a mutation on the interaction” value is on record?
Answer: with no effect

Variants of: B7
Settings: with creb5_human CREB5, Q02930

Question: For R27C, which “effect of a mutation on the interaction” value is on record?
Answer: with no effect

Question: With S8G as the variant, how does the “effect of a mutation on the interaction” value read?
Answer: with no effect

Variants of: B8
Settings: with cdc42_human CDC42, P60953
cdc42_human CDC42, P60953, sequence (P60953 whole entry, looked up): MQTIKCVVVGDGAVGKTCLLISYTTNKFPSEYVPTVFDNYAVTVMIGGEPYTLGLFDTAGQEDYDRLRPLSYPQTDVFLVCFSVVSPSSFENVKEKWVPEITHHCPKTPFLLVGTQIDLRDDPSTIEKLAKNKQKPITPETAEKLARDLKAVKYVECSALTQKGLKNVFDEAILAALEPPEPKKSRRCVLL

Question: How did the “effect of a mutation on the interaction” value turn out when I294T was run?
Answer: disrupting interaction strength

Question: Which “effect of a mutation on the interaction” value does the source give for E131K here?
Answer: with no effect

Variants of: B9
Settings: with catz_human CTSZ

Question: Y40C was tested. Which “effect of a mutation on the interaction” value did it give?
Answer: disrupting interaction strength

Variants of: B9
Settings: with sdc3_human SDC3, O75056
sdc3_human SDC3, O75056, sequence (O75056 whole entry): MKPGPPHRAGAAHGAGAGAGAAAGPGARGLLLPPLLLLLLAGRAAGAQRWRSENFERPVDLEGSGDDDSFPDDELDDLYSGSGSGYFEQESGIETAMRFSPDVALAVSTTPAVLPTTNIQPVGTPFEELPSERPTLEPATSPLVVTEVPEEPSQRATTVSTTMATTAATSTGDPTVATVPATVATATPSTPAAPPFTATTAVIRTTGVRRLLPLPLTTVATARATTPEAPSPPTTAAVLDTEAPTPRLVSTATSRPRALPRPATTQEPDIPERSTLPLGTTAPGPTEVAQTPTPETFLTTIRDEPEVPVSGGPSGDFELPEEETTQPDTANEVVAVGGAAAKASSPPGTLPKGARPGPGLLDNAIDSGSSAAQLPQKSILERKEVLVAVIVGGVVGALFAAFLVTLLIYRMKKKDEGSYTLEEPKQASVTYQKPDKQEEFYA

Question: How did the “effect of a mutation on the interaction” value turn out when Y40C was run?
Answer: with no effect

Variants of: B10
Settings: with sc24c_human SEC24C

Question: How did the “effect of a mutation on the interaction” value turn out when V426I was run?
Answer: with no effect
